According to publication PMC4861429 (The Journal of Biological Chemistry, 2016):
Where a chain is given by its changes, count along the chain named. Names and notes keep the numbering of the source.

How the values were obtained:
[1] = target: the molecule itself; test: negative-stain electron microscopy with Ni-NTA gold labelling; Ni-NTA gold (5 nm) on C-terminal His6-tagged TodS(43–978), negatively stained with 1% uranyl acetate
[2] = target: the molecule itself; test: SEC; purified PAS2(611–729) compared with the marker carbonic anhydrase (29 kDa)
[3] = target: the molecule itself; test: SEC-MALS; TodS(23–978) 1 mg/ml on Superdex G200, PBS pH 7.3 with 10% glycerol and 5 mM DTT, 0.25 ml/min, 25 °C
[4] = target: the molecule itself; test: SEC; purified His6-tagged PAS1(23–168) compared with the markers BSA (66 kDa) and carbonic anhydrase (29 kDa)
[5] = target: the molecule itself; test: not stated; the protein used for ITC is called 'the E146A mutant dimer'; how the dimer was shown for this mutant is not told

B1: TodS (residues 43–978), C-terminal His6-tagged (enzyme, Pseudomonas putida F1, UniProt A5W4E3 43-978, looked up)
chain: LYEFVGLLDAHGNVLEVNQVALEGGGITLEEIRGKPFWKARWWQISKKTEATQKRLVETASSGEFVRCDVEILGKSGGREVIAVDFSLLPICNEEGSIVYLLAEGRNITDKKKAEAMLALKNQELEQSVECIRKLDNAKSDFFAKVSHELRTPLSLILGPLEAVMAAEAGRESPYWKQFEVIQRNAMTLLKQVNTLLDLAKMDARQMGLSYRRANLSQLTRTISSNFEGIAQQKSITFDTKLPVQMVAEVDCEKYERIILNLLSNAFKFTPDGGLIRCCLSLSRPNYALVTVSDSGPGIPPALRKEIFERFHQLSQEGQQATRGTGLGLSIVKEFVELHRGTISVSDAPGGGALFQVKLPLNAPEGAYVASNTAPRRDNPQVVDTDEYLLLAPNAENEAEVLPFQSDQPRVLIVEDNPDMRGFIKDCLSSDYQVYVAPDGAKALELMSNMPPDLLITDLIMPVMSGDMLVHQVRKKNELSHIPIMVLSAKSDAELRVKLLSESVQDFLLKPFSAHELRARVSNLVSMKVAGDALRKELSDQGDDIAILTHRLIKSRHRLQQSNIALSASEARWKAVYENSAAGIVLTDPENRILNANPAFQRITGYGEKDLEGLSMEQLTPSDESPQIKQRLANLLQGGGAEYSVERSYLCKNGSTIWANASVSLMPQRVGESPVILQIIDDITEKKQAQENLNQLQQQLVYVSRSATMGEFAAYIAHEINQPLSAIMTNANAGTRWLGNEPSNIPEAKEALARIIRDSDRAAEIIRMVRSFLKRQETVLKPIDLKALVTDTSLILKAPSQNNSVNLDVVADDELPEIWGDGVQIQQLIINLAMNAIEAISQADCETRQLTLSFSGNDTGDALVISVKDTGPGISERQMAQLFNAFYTTKKEGLGMGLAICLTITEVHNGKIWVECPPAGGACFLVSIPARQGSGT
notes: In pET28b(+) (NcoI/XhoI); source: E. coli BL21 Star (DE3), purified (Ni-NTA, SEC Superdex G200); not shown: His6, C-terminal, kept
[1]
  stoichiometry N: 2

B2: TodS PAS2 (residues 611–729) (domain or fragment, Pseudomonas putida F1, UniProt A5W4E3 611-729, looked up)
chain: SEARWKAVYENSAAGIVLTDPENRILNANPAFQRITGYGEKDLEGLSMEQLTPSDESPQIKQRLANLLQGGGAEYSVERSYLCKNGSTIWANASVSLMPQRVGESPVILQIIDDITEKK
notes: TodS sensor kinase of Pseudomonas putida F1, residues 611–729 (PAS2 domain); also called PAS2(611–729); source: E. coli BL21 Star (DE3), purified (Ni-NTA, TEV protease, SEC Superdex G75, second Ni-NTA); not shown: His6, N-terminal, cleaved
[2]
  stoichiometry N: 2

B3: dimerization helix-containing TodS (residues 23–978) (enzyme, Pseudomonas putida F1, UniProt A5W4E3 23-978, looked up)
chain: KEKGSEELTCEEHARIIFDGLYEFVGLLDAHGNVLEVNQVALEGGGITLEEIRGKPFWKARWWQISKKTEATQKRLVETASSGEFVRCDVEILGKSGGREVIAVDFSLLPICNEEGSIVYLLAEGRNITDKKKAEAMLALKNQELEQSVECIRKLDNAKSDFFAKVSHELRTPLSLILGPLEAVMAAEAGRESPYWKQFEVIQRNAMTLLKQVNTLLDLAKMDARQMGLSYRRANLSQLTRTISSNFEGIAQQKSITFDTKLPVQMVAEVDCEKYERIILNLLSNAFKFTPDGGLIRCCLSLSRPNYALVTVSDSGPGIPPALRKEIFERFHQLSQEGQQATRGTGLGLSIVKEFVELHRGTISVSDAPGGGALFQVKLPLNAPEGAYVASNTAPRRDNPQVVDTDEYLLLAPNAENEAEVLPFQSDQPRVLIVEDNPDMRGFIKDCLSSDYQVYVAPDGAKALELMSNMPPDLLITDLIMPVMSGDMLVHQVRKKNELSHIPIMVLSAKSDAELRVKLLSESVQDFLLKPFSAHELRARVSNLVSMKVAGDALRKELSDQGDDIAILTHRLIKSRHRLQQSNIALSASEARWKAVYENSAAGIVLTDPENRILNANPAFQRITGYGEKDLEGLSMEQLTPSDESPQIKQRLANLLQGGGAEYSVERSYLCKNGSTIWANASVSLMPQRVGESPVILQIIDDITEKKQAQENLNQLQQQLVYVSRSATMGEFAAYIAHEINQPLSAIMTNANAGTRWLGNEPSNIPEAKEALARIIRDSDRAAEIIRMVRSFLKRQETVLKPIDLKALVTDTSLILKAPSQNNSVNLDVVADDELPEIWGDGVQIQQLIINLAMNAIEAISQADCETRQLTLSFSGNDTGDALVISVKDTGPGISERQMAQLFNAFYTTKKEGLGMGLAICLTITEVHNGKIWVECPPAGGACFLVSIPARQGSGT
notes: In pGST-Parallel1 (BamHI/XhoI); not shown: GST, N-terminal, cleaved
[3]
  stoichiometry N: 2

B4: dimerization helix-containing PAS1 (residues 23–168) of TodS (domain or fragment, Pseudomonas putida F1, UniProt A5W4E3 23-168, looked up)
chain: KEKGSEELTCEEHARIIFDGLYEFVGLLDAHGNVLEVNQVALEGGGITLEEIRGKPFWKARWWQISKKTEATQKRLVETASSGEFVRCDVEILGKSGGREVIAVDFSLLPICNEEGSIVYLLAEGRNITDKKKAEAMLALKNQELE
notes: TodS sensor kinase of Pseudomonas putida F1, residues 23–168 (PAS1 domain with the predicted dimerization helix); In pHis-Parallel1 (NcoI/XhoI), which has a TEV site after the His6 tag; the tag was not removed for this construct; The forward primer adds Met-Gly before Lys23; also called PAS1(23–168); WT PAS1(23–168); source: E. coli C41(DE3), purified (Ni-NTA only); not shown: His6, …
[4]
  stoichiometry N: 2

B5: F46A-PAS1(23–168) (domain or fragment, Pseudomonas putida F1, UniProt A5W4E3 23-168, looked up)
chain: B4 chain with F24A
notes: TodS sensor kinase of Pseudomonas putida F1, residues 23–168 with F46A; source: E. coli C41(DE3), purified (Ni-NTA only); not shown: His6, N-terminal, kept
[4]
  stoichiometry N: 2

B6: E146A-PAS1(23–168) (domain or fragment, Pseudomonas putida F1, UniProt A5W4E3 23-168, looked up)
chain: B4 chain with E124A
notes: TodS sensor kinase of Pseudomonas putida F1, residues 23–168 with E146A; also called E146A mutant; source: E. coli C41(DE3), purified (Ni-NTA only); not shown: His6, N-terminal, kept
[5]
  stoichiometry N: 2

B7: V59A-PAS1(23–168) (domain or fragment, Pseudomonas putida F1, UniProt A5W4E3 23-168, looked up)
chain: B4 chain with V37A
notes: TodS sensor kinase of Pseudomonas putida F1, residues 23–168 with V59A; source: E. coli C41(DE3), purified (Ni-NTA only); not shown: His6, N-terminal, kept
[4]
  stoichiometry N: 2

B8: F79Y-PAS1(23–168) (domain or fragment, Pseudomonas putida F1, UniProt A5W4E3 23-168, looked up)
chain: B4 chain with F57Y
notes: TodS sensor kinase of Pseudomonas putida F1, residues 23–168 with F79Y; source: E. coli C41(DE3), purified (Ni-NTA only); not shown: His6, N-terminal, kept
[4]
  stoichiometry N: 2

B9: W85H-PAS1(23–168) (domain or fragment, Pseudomonas putida F1, UniProt A5W4E3 23-168, looked up)
chain: B4 chain with W63H
notes: TodS sensor kinase of Pseudomonas putida F1, residues 23–168 with W85H; source: E. coli C41(DE3), purified (Ni-NTA only); not shown: His6, N-terminal, kept
[4]
  stoichiometry N: 2
